Measurements: patent US20130251642A1 (US Dept. of Health and Human Services, published 2013)

What was measured:
[1] = target: T1, Fc-hROR1ig+fz (human, UniProt Q01973 30-299, limits assumed); test: ELISA, Fc fusion of one or two domains of human ROR1 immobilized, antibody in IgG1 format, absorbance at 405 nm
T1 construct: domain: Ig and Frizzled; not shown: Fc domain (human IgG1 Fc is stated for Fc-hROR1; not restated for this construct)

[2] = target: T2, Fc-hROR1kr (human, UniProt Q01973 312-391); test: as above
T2 construct: domain: Kringle; not shown: Fc domain (human IgG1 Fc is stated for Fc-hROR1; not restated for this construct)
T2 sequence (Q01973 312-391): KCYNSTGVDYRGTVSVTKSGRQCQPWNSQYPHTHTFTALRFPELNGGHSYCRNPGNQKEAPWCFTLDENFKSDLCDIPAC

[3] = target: T3, Fc-hROR1ig (human, UniProt Q01973 30-147, limits assumed); test: as above
T3 construct: domain: Ig; not shown: Fc domain (human IgG1 Fc is stated for Fc-hROR1; not restated for this construct)
T3 sequence (Q01973 30-147 limits assumed): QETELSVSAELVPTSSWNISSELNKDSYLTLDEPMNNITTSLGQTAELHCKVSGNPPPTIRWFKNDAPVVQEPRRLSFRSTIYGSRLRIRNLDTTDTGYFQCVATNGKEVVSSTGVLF

[4] = target: T4, Fc-hROR1 (the three extracellular domains of human ROR1 fused to the Fc domain of human IgG1) (human, UniProt Q01973 30-406); test: SPR on immobilized Fc-hROR1; bivalent IgG1 Y31 against monovalent Fab Y31
T4 construct: extracellular domain; also called human ROR1 (Fc-hROR1); not shown: Fc domain of human IgG1
T4 sequence (Q01973 30-406): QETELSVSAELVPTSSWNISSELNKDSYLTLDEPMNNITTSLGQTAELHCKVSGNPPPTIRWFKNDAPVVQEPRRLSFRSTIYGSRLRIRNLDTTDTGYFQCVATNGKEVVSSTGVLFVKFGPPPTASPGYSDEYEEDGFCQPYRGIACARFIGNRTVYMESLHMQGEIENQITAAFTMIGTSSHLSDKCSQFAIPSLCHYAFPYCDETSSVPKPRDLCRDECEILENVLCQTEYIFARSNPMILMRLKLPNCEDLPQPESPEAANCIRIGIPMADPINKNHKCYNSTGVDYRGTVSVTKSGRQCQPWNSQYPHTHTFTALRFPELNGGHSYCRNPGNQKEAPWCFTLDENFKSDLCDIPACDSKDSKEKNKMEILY

[5] = target: T5, cell surface human ROR1 (human, UniProt Q01973 30-937); test: flow cytometry on primary CLL cells of one patient, IgG1 at 5 µg/mL
T5 construct: whole, on cells; The cell type of each entry is named under assay; also called HEK 293F/hROR1; HEK 293F cells stably transfected with human ROR1
T5 sequence (Q01973 30-937): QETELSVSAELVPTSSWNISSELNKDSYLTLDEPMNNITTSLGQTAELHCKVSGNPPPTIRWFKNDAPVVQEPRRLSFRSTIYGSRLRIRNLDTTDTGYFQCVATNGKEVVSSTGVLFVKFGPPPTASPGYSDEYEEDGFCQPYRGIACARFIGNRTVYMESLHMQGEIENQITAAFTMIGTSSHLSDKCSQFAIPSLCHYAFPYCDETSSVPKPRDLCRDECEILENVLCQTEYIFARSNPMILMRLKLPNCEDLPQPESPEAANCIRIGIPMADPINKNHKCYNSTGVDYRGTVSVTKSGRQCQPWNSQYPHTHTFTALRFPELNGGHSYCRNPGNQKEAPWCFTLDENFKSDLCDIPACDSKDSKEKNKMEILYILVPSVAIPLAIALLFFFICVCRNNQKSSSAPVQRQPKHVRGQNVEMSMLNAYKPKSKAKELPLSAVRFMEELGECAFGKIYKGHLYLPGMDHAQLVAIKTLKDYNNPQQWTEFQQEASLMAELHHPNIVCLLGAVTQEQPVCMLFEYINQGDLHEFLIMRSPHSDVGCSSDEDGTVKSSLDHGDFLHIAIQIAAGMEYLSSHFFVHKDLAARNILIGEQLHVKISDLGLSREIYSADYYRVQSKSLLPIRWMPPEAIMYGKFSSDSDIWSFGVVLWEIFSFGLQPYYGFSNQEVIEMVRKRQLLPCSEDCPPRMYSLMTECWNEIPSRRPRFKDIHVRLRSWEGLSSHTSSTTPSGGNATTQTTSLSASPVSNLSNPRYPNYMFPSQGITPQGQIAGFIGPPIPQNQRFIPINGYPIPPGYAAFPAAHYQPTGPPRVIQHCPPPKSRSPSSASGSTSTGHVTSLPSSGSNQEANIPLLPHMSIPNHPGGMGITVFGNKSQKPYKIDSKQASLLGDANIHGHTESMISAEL

[6] = target: T5, cell surface human ROR1; test: flow cytometry on primary CLL cells of one patient, IgG1 at 1 µg/mL
[7] = target: T3, Fc-hROR1ig; test: ELISA on immobilized Fc-hROR1ig (Fab data not shown)
[8] = target: T2, Fc-hROR1kr; test: ELISA on immobilized Fc-hROR1kr (Fab data not shown)
[9] = target: T5, cell surface human ROR1; test: flow cytometry on primary CLL cells of one patient, IgG1 at 0.1 µg/mL
[10] = target: T6, Fc-mROR1 (mouse analogue of Fc-hROR1) (mouse, UniProt Q9Z139 30-406); test: ELISA, antigen immobilized, antibody in IgG1 format, absorbance at 405 nm
T6 construct: extracellular domain; also called mouse ROR1 (Fc-mROR1); not shown: Fc domain (human IgG1 Fc is stated for Fc-hROR1; not restated for this construct)
T6 sequence (Q9Z139 30-406): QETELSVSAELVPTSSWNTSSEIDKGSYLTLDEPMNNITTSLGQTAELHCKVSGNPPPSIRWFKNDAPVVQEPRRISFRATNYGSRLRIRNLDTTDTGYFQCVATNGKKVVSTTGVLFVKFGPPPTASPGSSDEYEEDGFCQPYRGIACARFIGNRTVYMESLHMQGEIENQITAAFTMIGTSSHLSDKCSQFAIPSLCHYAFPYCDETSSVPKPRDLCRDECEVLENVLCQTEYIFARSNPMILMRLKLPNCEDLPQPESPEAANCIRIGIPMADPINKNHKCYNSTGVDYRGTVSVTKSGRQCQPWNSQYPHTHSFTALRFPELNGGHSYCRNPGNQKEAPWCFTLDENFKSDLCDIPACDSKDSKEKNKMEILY

[11] = target: T7, Fc-hROR1fz+kr (human, UniProt Q01973 165-406, limits assumed); test: ELISA, Fc fusion of one or two domains of human ROR1 immobilized, antibody in IgG1 format, absorbance at 405 nm
T7 construct: domain: Frizzled and Kringle; also called Fc-hROR1kr+fz; Fc-ROR1fz+kr; not shown: Fc domain (human IgG1 Fc is stated for Fc-hROR1; not restated for this construct)
T7 sequence (Q01973 165-406 limits assumed): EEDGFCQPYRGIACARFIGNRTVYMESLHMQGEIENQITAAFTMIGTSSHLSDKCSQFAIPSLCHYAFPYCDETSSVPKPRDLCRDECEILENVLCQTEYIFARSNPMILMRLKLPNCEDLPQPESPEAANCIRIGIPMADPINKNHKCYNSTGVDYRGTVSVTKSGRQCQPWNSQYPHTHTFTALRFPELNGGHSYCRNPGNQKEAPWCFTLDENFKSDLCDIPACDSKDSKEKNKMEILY

[12] = target: T4, Fc-hROR1 (the three extracellular …); test: SPR on immobilized Fc-hROR1; bivalent IgG1 R12 against monovalent Fab R12
[13] = target: T6, Fc-mROR1 (mouse analogue of Fc-hROR1); test: SPR (Biacore X100), Fc-mROR1 immobilized on CM5 chip
[14] = target: T8, hROR2-Fc (commercially available, R&D Systems) (human, UniProt Q01974 34-403); test: ELISA, antigen immobilized, antibody in IgG1 format, absorbance at 405 nm
T8 construct: Bought from R&D Systems; also called human ROR2 (hROR2-Fc); not shown: Fc part of the bought fusion
T8 sequence (Q01974 34-403 limits assumed): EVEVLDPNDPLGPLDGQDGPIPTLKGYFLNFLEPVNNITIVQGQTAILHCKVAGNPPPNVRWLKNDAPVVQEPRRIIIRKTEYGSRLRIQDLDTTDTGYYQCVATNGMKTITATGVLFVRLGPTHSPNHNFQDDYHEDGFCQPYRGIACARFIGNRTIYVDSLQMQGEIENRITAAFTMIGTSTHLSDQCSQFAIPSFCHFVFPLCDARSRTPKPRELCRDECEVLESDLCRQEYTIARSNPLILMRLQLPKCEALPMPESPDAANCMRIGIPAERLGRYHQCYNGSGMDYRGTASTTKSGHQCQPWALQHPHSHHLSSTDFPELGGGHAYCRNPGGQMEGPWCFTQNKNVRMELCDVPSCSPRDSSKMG

[15] = target: T9, Fc-hROR1fz (human, UniProt Q01973 165-299, limits assumed); test: ELISA, Fc fusion of one or two domains of human ROR1 immobilized, antibody in IgG1 format, absorbance at 405 nm
T9 construct: domain: Frizzled; not shown: Fc domain (human IgG1 Fc is stated for Fc-hROR1; not restated for this construct)
T9 sequence (Q01973 165-299 limits assumed): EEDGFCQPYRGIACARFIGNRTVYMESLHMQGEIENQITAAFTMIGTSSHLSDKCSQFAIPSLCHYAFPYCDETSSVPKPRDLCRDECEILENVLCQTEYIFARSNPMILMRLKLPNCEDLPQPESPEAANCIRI

[16] = target: T4, Fc-hROR1 (the three extracellular …); test: SPR on immobilized Fc-hROR1; bivalent IgG1 R11 against monovalent Fab R11
[17] = target: T8, hROR2-Fc (commercially available, R&D …); test: ELISA on immobilized hROR2-Fc (Fab data not shown)

T1 sequence (Q01973 30-299 limits assumed): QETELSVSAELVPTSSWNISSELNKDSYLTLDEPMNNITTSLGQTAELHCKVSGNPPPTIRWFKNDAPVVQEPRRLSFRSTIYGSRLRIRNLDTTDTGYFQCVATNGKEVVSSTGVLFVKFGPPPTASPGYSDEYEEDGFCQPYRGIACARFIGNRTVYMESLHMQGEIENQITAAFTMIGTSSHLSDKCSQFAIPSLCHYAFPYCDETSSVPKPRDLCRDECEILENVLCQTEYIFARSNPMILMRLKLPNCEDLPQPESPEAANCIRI

Row | binding result [1] | binding result [2] | binding result [3] | MFI [5] [MFI] | MFI [6] [MFI] | binding result [7] | binding result [8] | MFI [9] [MFI] | Binder | also measured
1 | no binding (tested: not given) | no binding (tested: not given) | no binding (tested: not given) | 21.6 | 8.3 | – | – | – | chimeric rabbit/human IgG1 Y31 (antibody, V domains shown, IgG1 format from vector PIGG (human gamma 1 heavy and kappa light constant regions), made in HEK 293F cells; Biotinylated for flow cytometry; also called mAb Y31) VH: QSLEESGGRLVTPGTPLTLTCTVSGIDLNSHWMSWVRQAPGKGLEWIGIIAASGSTYYANWAKGRFTISKTSTTVDLRIASPTTEDTATYFCARDYGDYRLVTFNIWGPGTLVTVSS VL: ELVMTQTPSSVSAAVGGTVTINCQASQSIGSYLAWYQQKPGQPPKLLIYYASNLASGVPSRFSGSGSGTEYTLTISGVQREDAATYYCLGSLSNSDNVFGGGTELEIL | factor of increase of virtual affinity, IgG1 against Fab [4]: 12 fold
2 | – | – | – | – | – | no binding | no binding | – | chimeric rabbit/human Fab R12 (Fab, V domains shown, The light chain is rabbit V lambda with human C kappa; SPR: purified Fab-(His)6) VH: QEQLVESGGRLVTPGGSLTLSCKASGFDFSAYYMSWVRQAPGKGLEWIATIYPSSGKTYYATWVNGRFTISSDNAQNTVDLQMNSLTAADRATYFCARDSYADDGALFNIWGPGTLVTISS VL: ELVLTQSPSVSAALGSPAKITCTLSSAHKTDTIDWYQQLQGEAPRYLMQVQSDGSYTKRPGVPDRFSGSSSGADRYLIIPSVQADDEADYYCGADYIGGYVFGGGTQLTVTG | binding result [13]: no binding (tested: 1.5 to 100 nM)

Second part, the binder before the results:

Row | Binder | binding result [1] | binding result [2] | binding result [3] | MFI [5] [MFI] | MFI [6] [MFI] | binding result [7] | binding result [8] | MFI [9] [MFI] | also measured
3 | chimeric rabbit/human Fab Y31 (Fab, V domains shown, Fab with human C kappa and human CH1; SPR: purified Fab-(His)6) VH: QSLEESGGRLVTPGTPLTLTCTVSGIDLNSHWMSWVRQAPGKGLEWIGIIAASGSTYYANWAKGRFTISKTSTTVDLRIASPTTEDTATYFCARDYGDYRLVTFNIWGPGTLVTVSS VL: ELVMTQTPSSVSAAVGGTVTINCQASQSIGSYLAWYQQKPGQPPKLLIYYASNLASGVPSRFSGSGSGTEYTLTISGVQREDAATYYCLGSLSNSDNVFGGGTELEIL | – | – | – | – | – | no binding | no binding | – | –
4 | chimeric rabbit/human IgG1 R12 (antibody, V domains shown, IgG1 format from vector PIGG; The light chain is rabbit V lambda and human C kappa; the heavy chain has the human gamma 1 constant region; Made in HEK 293F cells; Biotinylated for flow cytometry; also called mAb R12) VH: QEQLVESGGRLVTPGGSLTLSCKASGFDFSAYYMSWVRQAPGKGLEWIATIYPSSGKTYYATWVNGRFTISSDNAQNTVDLQMNSLTAADRATYFCARDSYADDGALFNIWGPGTLVTISS VL: ELVLTQSPSVSAALGSPAKITCTLSSAHKTDTIDWYQQLQGEAPRYLMQVQSDGSYTKRPGVPDRFSGSSSGADRYLIIPSVQADDEADYYCGADYIGGYVFGGGTQLTVTG | – | no binding (tested: not given) | no binding (tested: not given) | 122 | 97.9 | – | – | 89.4 | binding result [10]: no binding (tested: not given); binding result [11]: no binding (tested: not given); factor of increase of virtual affinity, IgG1 against Fab [12]: 5 fold
5 | chimeric rabbit/human IgG1 R11 (antibody, V domains shown, IgG1 format from vector PIGG (human gamma 1 heavy and kappa light constant regions), four polypeptide chains, made in HEK 293F cells; Biotinylated for flow cytometry; also called IgG1 11; mAb R11) VH: QSVKESEGDLVTPAGNLTLTCTASGSDINDYPISWVRQAPGKGLEWIGFINSGGSTWYASWVKGRFTISRTSTTVDLKMTSLTTDDTATYFCARGYSTYYCDFNIWGPGTLVTISS VL: ELVMTQTPSSTSGAVGGTVTINCQASQSIDSNLAWFQQKPGQPPTLLIYRASNLASGVPSRFSGSRSGTEYTLTISGVQREDAATYYCLGGVGNVSYRTSFGGGTEVVVK | no binding (tested: not given) | – | no binding (tested: not given) | 64.9 | 18.1 | – | – | 6.6 | binding result [14]: no binding (tested: not given); binding result [15]: no binding (tested: not given); factor of increase of virtual affinity, IgG1 against Fab [16]: 14 fold
6 | chimeric rabbit/human Fab R11 (Fab, V domains shown, Fab with human C kappa and human CH1; For SPR it was the purified Fab-(His)6 from pET11a (HA tag removed, C-terminal His6)) VH: QSVKESEGDLVTPAGNLTLTCTASGSDINDYPISWVRQAPGKGLEWIGFINSGGSTWYASWVKGRFTISRTSTTVDLKMTSLTTDDTATYFCARGYSTYYCDFNIWGPGTLVTISS VL: ELVMTQTPSSTSGAVGGTVTINCQASQSIDSNLAWFQQKPGQPPTLLIYRASNLASGVPSRFSGSRSGTEYTLTISGVQREDAATYYCLGGVGNVSYRTSFGGGTEVVVK | – | – | – | – | – | – | – | – | binding result [17]: no binding
